The nature of the data set: label from the status in PepcDB records.
In the case of “MDGVGAHAHTGELRSAQALRSASLWLWPLLCWALLAGWPLGAHPLKHTAYHTVTRWDMDDGLPHNLVHAVAQGSDGVIWLGTWEGVARFNGRDFTVFDRQNTPGVELGGVFVVVRDGDGMLFGTAFDGVYRHQDGRWQQLGDASARHLAVSALLRRADGALWVGTPQTLYRIELDGRVVDVGRQAGLPRARITALSTDARGDLWIGTDVGLYQLPLGASAATAWGQAHGMADTPVRRLASDRQGGLLVAGDDGVWWWSRGGGLQRFRQGQRVDSLVMDRSGHLWMSLSAGTLVVHSGPDDPDEQIAISGVASPALLEDAEGLIWVGSTHGLFRVAEGAAHGVTIDDGLASDYVRSVLQTADGTVWVGSAVGLDRWRDGQIARVPFSRGSAGRVLEQSVLALADAGDGGVWAGTYSQGVLRLDAQGAVVQRIGAAEGLSSLSVRAVLPDGDALWIGTTAGLVRWHDGRARRYTAADGVPDGSVQVLYRDAQGTIWSGTDRGMTALSPDGGTRAWLGEQDFPGQNAFDFLRDPSGDLWIASDRGLLRLRGERFQVYDHRVGLPRDKVFRVIDDGRGYLWLSSNHGVFRIARRDFDQIDAGTREQLSVEVVDRSDGMPGNQGNGSSAPAGWLTQTGQLLFPTAAGLGVIDPARVGTLQGHRVPIVIERLVVDGMVQPLDGPHRLSADTRRIAIGYAGLNFRGPDKVRYRYRLDGFDPDWVDADSATEAVYTNLPPGRFRFRVQAMSLPVDWRQAALLGETSVVLELAPPWWRRGEVIGLGVLCLASVIYGFYLWRTASYRRRQRELNVVIDKRTRELSDKNLALQQASQEREALMRQLEYRASHDVLTALPNRREAERVLQQWLDEAQAGGAPLALALADIDHFKRINDAHGHEVGDAVLRAVGEVLADQEHAHCFAARHGGEEFLLAVTGLEAAHARALFEQQRQRLGTIAIAADEATVQCTASMGMAMSNEAHSRRELLALADRRLYHAKRQGRDRLIDQ”, the protein production result is recorded as “failed”.

Regarding “MGKMEPFRATGDGLFIMNEGNFQYGNATLSYYDPETKKVENEIFYRANAMKLGDVAQSMIVRDTIGWVVVNNSHVIFAISTNTFKEVGRITGLTSPRYIHFISDEKAYITQIWDYRIFIVNPKTYQITGYIECPDMTMETGSTEQMVQYGKYVYVNCWSYQNRILKIDTTTDKVVDQLTVGIQPTSLVMDKNFKMWTITDGGYKGSPYGYEEPSLYRIDAETFKIEKQFKFQLGDAPSEVQLNGAGDELYWINKDIWRMSVDEERVPVRPFLKYRDTKYYGLTVSPKNGDVYVADAIDYQQQGMIYRYTEDGELVDEFYVGIIPGAFCWKLEHHHHHH”, the protein production entry is reported as “not failed”.

Consider “RAKLMEERETSLKDSVEVAFDAVRLIANNPNLSEAEAKQQVKAVLTNIRYGSDGYFFAYDAQGTNLVHPIQPELVGQNLWQLQDERGDFLIQ”, for which the protein production entry was “failed”.

For “MQRAAVFDVDGTLVDTNHLHVTTWWEAFRQAGHRVPMHAVHRAVGLASGDLVARLLGEDRDKEQDAELSAAHKALYGQYFDRLPALPGAGDLLRRLAADGWTVVLATSAGGSELGALRRAIDADDAIEATASADDVDAGKPAPEPVEHALELAGVPAERAVFVGDTVWDMRAGSRAGVRCVGVLCGGLPRADLEEAGAEAVYADPADLLASLRGSPLA”, the protein production result is on record as “failed”.

For the sequence “MNLPKVKMLQVSKCLIGLAVMMLQSCDVADNRRDMLCGNWESVEGKPDVLIYKEGEAYKVTVFRRSGLRRKLKPETYLLQEENGNLFMNTGFRIDVSYNEATDVLTFSPNGDYVRVKPQPGHPTEE”, the protein production result is “failed”.

“ATHTLQLAIGDEPTEGFDPMLGWSHGSYLLLHSPLLKQNEDFSWDSLLLSQYQPSDDGKTWLLTLKPDLKFSDGSPLTAKDVAFTYNNAAASGGKVDMGNFLSAEVIDPLNVRIHLKAPQSTFVNVLGSLGIVSADKYNAKTYAQKPIGAGPYRLVSFQPGQQMIVEANPYYAGNKNDFDKLIFVFLDEDSAFAAAQSGQLGVVRIPPSMAVGSVNNMKLWVRPSVENRGIVFPTTPAGKKDAHGYPIGNDVTADVAIRRAINYAINRQLLADQIMEGHAIPAYTGVQGLPWNNPDSAIKDGDIDKAKQILEQAGWQLNSQGTREKNGLPAKITLWYTSGDTTRRDLAQALRSMLKPIGIDVDLKSGSWETVERNMHANPTLFGWGSLDPMELYHHYSSNAAGVEYYNPGYYKNPMVDKHLQQALDAPTWQQAVPFWQQVDWDGTTGAGIRGDAAWAWLLNIQHTYLANNCVDLGKGTPEIHGSWSLLNSIDSWK”: the protein production result is recorded as “not failed”.

In the case of “MDTTCLVLTWMGSRVPIETIEEDGEFDWEAAVKEIDLACLKTTNAHPPITENLTKPPAKRQSTLDKFIGRTEPKPENHQVVSECGGNDNDNSLLVEIDPEAAKTWIYRGLLRLLTF”, the protein production entry is “failed”.

For “MTNKQKMRKRRRALLCVFAAFAFSFNPLGKIAYATPKQDTSVVNYVKTQEETSNSIQNQPISSYWYPEDLLKWSANNDKDAKFNKSTVPLAKRVEKDKLDTINDTQNKDVKVVAISIMNANTSGNPSQGSNKFSANTFSYWQYIDKLVYWGGSAGEGLIVPPSPDVTDSAHRNGVPVLGTVFFPMTAHGGKMEWLNKFLEKDANGNFPIVDKLIEVAENYGFDGWFINQETEGTEQEPLTPEHAKLMQELIKQFKAKSNGKFEIMWYDSMTKDGDMDWQNALTDKNEYFLLDGDKNKVADSIFLNFWWTYNSLKDKDLLRVSNEKAKEIGINPYDLYAGIDVQANGYKTPLRWTHYQRDDQAPFTSLGLYCPSWTYFDAKTPEQFQENENRLWVNEHGDPSKTTNAQGVDWRGISTYSVEKSAVTSLPFTTNFNIGNGYDFYVDGNKVSTQDWNNRSLNDIMPTYRWVISNEENNNVKADIDYTTAYYGGNSIKLSGYLAEGKASTIKLYSSDLTLPEGVQFTTTAKANGNTVDMDLVLTFHDGTETTISADKKLGTDWTKLNYDVSPYVGKSIKTISYKLSSPVCVDNFSANLGNITIEIPNSSSKVNISNAKLNDVDFKDGIYAGARLSWSPEGNSSDVHHYEIYRVMNDGTKVLLGATPNTSYYVSDLRRNDKETNTNFEVVAVNKNFNRGNSQSINMEWPAYPAPTASFKVSNTLIAPGQSVTFTNTSSEVTEEIQWKFPGAKVESSTEQNPTVTYEKEGVYPVILTAKNSSGENVETKTELITVTNAAKDGLVNLSLNKSAKASSFVNENEAPQYALDGNVKTKWCAVGSAPHTLTIDLGDIKTIGELEISHAEAGGESSGMNTKAYSFEVSNDGENFTPVLNVDDNTKAISNDAFPVTKARYVRLNIIQPTQGADSAARIYEVAVKGLDGNVDLPPVMNPDDSNKPVDPDQPENPDKPNNPEKPENPDNPGNTDKPVNPDQPGDSEKPETPNKPGDTENPEGKPANPSDLVSKEITENSALLSWKAPEKVESIQEYVVYQDGKEIGRVPTDKTPLEFLVKDLKPNTKYNFEVSSIDKDGKESDKISLEVTTKKKDNGNLPNTGSPIGAGALATTGIALSSAGVYLTLKKKRK”, the protein production result is “failed”.

Consider “MLINLGQRLENLRTLVGFLKAARAESLDRVIAIADSLNKTEIAAQSRRWMLSHPAVAQLAAENYAPARPALEALNQLPTGTLGQAYASLLLGQNLSPDDLQPAKPATNADEYIVERLRVTHDIAHVITGFGTDPASELGLQAFNLRQNRTPLAVLLIAGGLLKTIKEGRDPAPILRQVARGIELADKAELLVAQRWEDHWDWPLEQWRQVLNLPV”, for which the protein production entry is “failed”.

With “MTQQHPHLLEPELGEFLTALKNTPSRLTARTAAWLCIWTASRPGMVRLAEWKEFDLDKATWTTPAAKMKMRRDFVCPLPHQAIAALKELHCLTGRSRWLFPGVGAKNPTISENTINKVFATIGYKGRLVGHGTRHTASTLLREHGWPKEHVEAQLAHKEEGLEHHHHHH”, the protein production result is listed as “failed”.

“MMTDEARAKLAAIPMLAGYTGPLERLGGLTNLVFRAGDLCLRIPGKGTEEYINRANEAVAAREAAKAGVSPEVLHVDPATGVMVTRYIAGAQTMSPEKFKTRPGSPARAGEAFRKLHGSGAVFPFRFELFAMIDDYLKVLSTKNVTLPAGYHDVVREAGGVRSALAAHPLPLAACHCDPLCENFLDTGERMWIVDWEYSGMNDPLWDLGDLSVEGKFNANQDEELMRAYFGGEARPAERGRVVIYKAMCDLLWTLWGLIQLANDNPVDDFRAYADGRFARCKALMETPEFSRHLAAVRMG”: the protein production entry is recorded as “not failed”.

With “MDVTWTVKYITEFVGTALLIIMGNGAVANVELKGTKAHAQSWMIIGWGYGLGVMLPAVAFGNITSQINPAFTLGLAASGLFPWAHVAQYIIAQVLGAMFGQLLIVMVYRPYYLKTQNPNAILGTFSTIDNVDDNDKKTRLGATINGFLNEFVGSFVLFFGAVAATNIFFGSQSITWMTNYLKGQGADVSSSDIMNQIWVQASGASASKMVAHLFLGFLVMGLVVALGGPTGPGLNPARDFGPRLVHSLLPKSVLGEAKGSSKWWYAWVPVLAPILASLAAVALFKMIYL”, the protein production entry is listed as “failed”.

As for “QLSMLNPQKPMRRSEQHIARQVFSGLTRLDEEEQLQPDLAHAWQALSDTHWRFYLRPGVRFHNGNLLTTELIVQNLWQLRLLNLFAHIDRVDSPYPWAVDVHLQKPDTRLPLLLAEACAKILPAESDRNPDFDLMPVGTGPYKVVLND”, the protein production result is recorded as “failed”.

Regarding “MPQPDPQGFRRSLFLYRRAGMAEIGDFAVKFMIGIRSKRMITLPSLNNLPSKWDEIRHCLETRVFECGVMPYPNLTECEAGQFERDFWDNIGCAPEEYVRIRRAIRLLELRYPDSLNELVCAAIATPLGEMLAVFGVKGLCLLEFVGQKYLEQEIAAVQKALRGRFVFREDGRMQFLRQELDLYFKGHLKTFATPLEQIGTEFQKQAWDALLAIPYGETRSYKEQAQRLGNPKAVRAVAAANGQNKVSVMIPCHRVIGSDGKLTGYAGGLNRKQFLLALERGEVQTALF”, the protein production entry is on record as “failed”.

Regarding “MTDPEKLTALKKAYAETILNTAKEAAARVMITERKARGYQQELASVRDEALRACLRLKQIYDSKVKEAEMISLQKQQKIEELEAQLGEAEDIVGELRTELRESRYLLEKLANGCQTNLSKEEKAPNEAVSLEVREDSSNHERSVVASVIKPHMSDRDLSINRCSYKENKDPCLYTLPSILSRCREAEVVERNTINGDCADVESLTEARKEEAKENDIELSTTPLSPSEKQCIKFSYKRKHNKDGSNSPEGGGSSSQDDDDDDESRSRRHKTGEKDNAYLDSFTSTEPSRDSRRVAQVARQVSESR”, the protein production result is listed as “failed”.

Regarding “SSSTEVKDNVLTEEEKAEGYTLLFNGKDFTGWKMFNGGDVKGWQVEDGVIVGYGNGGDVIADTTIKVSTDIVTVKNYHNFQIKWDWKIGAQGNSGFLYHVQEGPKYKAPFETGPEYQLIDDDNYPWVSETGKEGLEDWQKTGCNYAMYVPETKQVNPPGEWNSSMVLYKDGYVEHWLNGEKLFSFQEGSEDWKMRRYSGKWEAFPDYGISTTGKLCFQDHGSKVYFKNVKIKDLD”, the protein production entry is “not failed”.

“MRSSSSSSVLPSLPNARLRRPAVWIAFLAVAALSLTGCDLFGSNDDEGRRVTTDVVIANSGNFSAQDGSLTLYNPTASTATLKDIEVAFINSLAQHNGRLFVVDNTTSDNAGKITTFDTEQLGPVDQITNLQRSPRRIAFPEENKGYVTNLSRDLDDAPSNFVPDTSTVSVVDLEADSVTKRVDVGRSPEGIAAVARKAFVANSADGTLSVLDAGADTVNTTLSLPDCANPKSVFVDDENEVAVVCQGGGEQASEVLFLSPIEETIKDRVELGAPIGSANGSQSAYYSEGAEELYTISGSQAFGGNGTGEIFRIDTNANALDATLEIPQDDGLIGITAVGYDDVTQDLYVTRLPVGAGGFPLFSANGTALVLDRQGNEVTRFETGNSPGHITFLGDRQ”: the protein production entry is reported as “failed”.

Turning to “VQSKNPVLIEGFPGIGLVGNIASQHIIEELNMEYIGSIDSRYFPSIAVLYEGLINMPVRIYENVEHNLIIVISDIPISHSVSYDVSNALVDWAEAINVKEIASIAGIAIMDGGHKVFGAATTPEMLDKIRDKVEIFQMGTISGISGSVMAECLLRGIPAISLLGATRTQNPDPRAASSVIGVLNELYGLSISTDRLIEQAERIEIELQRLAEDVQATERKGEVKKEFPMYG”, the protein production result was “failed”.

The values above are taken from a protein production outcome set (Wang et al. 2014).
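Note: failed if final PepcDB status was selected cloned or expressed and not failed if soluble or beyond.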
